Entries after “also recorded” stand apart in the source; their conditions may differ. [C3] = C3 (propyl) spacer linking the 3' end of the DNA aptamer to the passenger RNA
Tests used:
[1] = tested on: hematopoiesis; assay: Carboplatin-induced myelosuppression in mice; type: in vivo, mouse
Procedure: (§1) For xenograft models, the NSG mice and BALB/c mice were subcutaneously injected with 2×10^6 viable MDA-MB-231 cells and TUBO cells in their right hind limbs, respectively. After the tumor grew to 1 cm in diameter, mice were randomly divided into the groups for each treatment. For no treatment control, 100 μl saline with 1% mouse serum was intravenously injected through tail vein. For treatment groups, 670 pmol/20 g chimeras and/or 5(0 mg/kg 5-fluorouracil (5-FU), or 120 mg/kg carboplatin were also intravenously injected. Tumor sizes were measured in two dimensions every 3 days. Tumor volume (V) was calculated using the following formula: V=(½) S^2×L (S. the shortest dimension; L, the longest dimension). Animals were euthanized when the tumor size was over 2 cm diameters, tumor ulcerated, or became necrotic. For chimera treatment in normal mice, C57BL/6 mice were treated with miR-26a chimera (670 pmol/20 g) everyday for 3 days by intravenous injection. At day 2, 150 mg/kg 5-FU and/or 120 mg/kg carboplatin was injected together with the chimera. Peripheral bloods were collected at day 5 and day 10 after the 5-FU treatment. Complete blood counts were measured by Hemavet 950FS (Drew Scientific, Miami Lakes, Fla., USA).

[2] = tested on: MDA-MB-231 cells; assay: Growth and apoptosis of MDA-MB-231 cells cultured with chimera; type: cell-based, human; details: 3 days of culture
Text: FIG. 1A-FIG. 1H show identification and validation of KIT-targeting miR-26a chimera that inhibits human breast cancer growth in vitro and in vivo. FIG. 1A is a graph showing the overall survival of basal-like breast cancer patients with higher or lower expression of miR-26a-2 based on the expression scores comparing to the mean value in TCGA cohort. FIG. 1B is a graph showing the binding of anti-KIT antibody and KIT DNA aptamer to MDA-MB-231 cell line. Other cell targeting aptamer is specific for Ramos cells. FIG. 1C depicts the secondary structure of KIT aptamer-miR-26a chimera. KIT DNA aptamer was linked with C3 linker to RNA passenger sequence that was complimentary binds to miR-26a mimic sequence. Another RNA passenger sequence binding to the 3′ of miR-26 mimic was conjugated with TEG-cholesterol. FIG. 1D is a graph showing specific miR-26a delivery by the miR-26a chimera. […] After 3 days of culture with miR-26a chimera or control chimera, MDA-MB-231 cell numbers (left) were counted using hemocytometer and Annexin V positive cells (%) (right) was determined by flow cytometry. […]
For aptamer binding assay, streptavidin-APC (Cat #554067) […] Bioscience, San Jose, Calif., USA) was used for detecting the biotin-conjugated aptamers by flow cytometry. […] Flow cytometry analysis was performed on FACS Canto II (BD Bioscience) and the data were analyzed with FlowJo (FLOWJO, Ashland, Oreg., USA). […]

[3] = tested on: MDA-MB-231 cells; assay: miR-26a delivery into MDA-MB-231 cells, qPCR; type: cell-based, human; details: two days after incubation, compared to control chimera
Text: Total RNAs from cell lines and mouse tissues were extracted by RNeasy Plus Mini kit (Qiagen, Valencia, Calif., USA). miR-26a levels were quantified by Taqman microRNA assay (assay ID; 000405) that covered both has-miR-26a-5p and mmu-miR-26a-5p (Thermo Fisher Scientific) according to manufacturer's protocol. U6 snRNA (Taqman microRNA assay, assay ID; 001973) was used as endogenous control. For qPCR of other genes, cDNAs were synthesized from the purified total RNA with qScript cDNA supermix (Quanta Bio, Gaithersburg, Md., USA). Real-time PCR was performed with Power SYBR Green PCR master mix (Thermo Fisher Scientific) on 7500 Real Time PCR system (Thermo Fisher Scientific). Sequence primers for mouse Bak were […] (forward) (SEQ ID NO: 11) and […] (reverse) (SEQ ID NO:12). For mouse Ezh2, […] (forward) (SEQ ID NO:13) and […] (reverse) (SEQ ID NO:14). For mouse Actb, […] (forward) (SEQ ID NO:15) and […] (reverse) (SEQ ID NO:16) were used as endogenous control.

[4] = tested on: MDA-MB-231 xenograft tumors; assay: MDA-MB-231 xenograft in NSG mice; type: in vivo, mouse
Text: Xenograft model were generated 8-weeks old female immune-deficient NOD-scid IL2Rgamma^null (NSG™, Jackson Laboratories, Bar Harbar, Me., USA) using human breast cancer cell line. Syngeneic TUBO tumors were established in 8-weeks old female BALB/c mice (from Charles River Animal Facility, Frederick, Md., USA). These tumor-bearing mice were randomly assigned to each treatment group. Eight-week old male C57BL/6 mice and C57BL/6 ly5.2 mice (from Charles River Animal Facility, Frederick, Md., USA) were used for bone marrow transplantation assay. The mouse groups assigned for each treatment were not blinded. No statistical methods were used to pre-determined sample size for the analysis of mouse experiments. All the mice were maintained in the Research Animal Facility at Children's National Institute, Children's National Medical Center. The committee on the Use and Care of Animal at Children's National Institute approved all procedures involving experimental animals.
as §1

[5] = tested on: EZH2 protein; assay: EZH2 immunoblot in chimera-treated MDA-MB-231 cells; type: cell-based, human; details: 167 nM chimeras for 2 days
Procedure: The cell lysate from MDA-MB-231 cells treated with 167 nM chimeras for 2 days were fractionated by SDS-PAGE and then transferred to PVDF membrane (EMD Millipore, Billerica, Mass., USA). Following blocking with 5% FBS in tris-buffered saline, the membrane was incubated with primary antibody against EZH2 (D2C2) and Histone H3 (Cat #9715) (Cell Signaling Technologies, Danvers, Mass., USA) overnight at 4° C. and then incubated with horseradish peroxidase-conjugated anti-mouse and rabbit IgGs (Thermo Fisher Scientific) for 1 hr. respectively. The antigen-antibody immunoreactivity was detected in ChemiDoc Touch Imaging System (Bio-Rad Hercules, Calif., USA) using SuperSignal West Pico Chemiluminescent Substrate (Thermo Fisher Scientific).

In the case of `N.N.O=C([O-])C1(C(=O)[O-])CCC1.[Pt+2]` [carboplatin, reference compound], the “red blood cells after carboplatin” value ([1]; day 10) is reported as “reduction of red blood cells was also observed” and the “hematopoiesis: WBC and platelet counts after carboplatin” value ([1]; single high dose of carboplatin, day 5, compared with vehicle) is reported as “significant defects in hematopoiesis; also recorded: significantly reduced WBC and platelet counts”.

B1: KIT-targeting miR-26a chimera: anti-human KIT DNA aptamer-C3-passenger RNA, passenger RNA-TEG-cholesterol and miR-26a-5p guide strand annealed (SEQ ID NO:4/5, 8, 9) (nucleic acid)
chain 1: GAGGCATACCAGCTTATTCAAGGGGCCGGGGCAAGGGGGGGGTACCGTGGTAGGACATAGTAAGTGCAATCTGCGAA
chain 2: CCUAUUCUGG
chain 3: GUUACUUGCACG
guide: UUCAAGUAAUCCAGGAUAGGCU
modifications: chain 1: DNA, 3' [C3], backbone not given here; chain 2: chemistry not given here; chain 3: chemistry not given here; guide: chemistry not given here; DNA aptamer joined by C3 spacer to passenger RNA, annealed three-part chimera
B1 was tested, and the “Annexin V positive cells (apoptosis) of MDA-MB-231 cells” value ([2]; flow cytometry) was “induced apoptosis; also recorded: induction of apoptosis”, the “MDA-MB-231 cell numbers (growth)” value ([2]; hemocytometer) was “suppressed the growth; also recorded: inhibited cell growth” and the “miR-26a expression in the MDA-MB-231 cells” value [3] was “significant increase; also recorded: successfully delivered miR-26a”. The “tumor growth (tumor volume)” value ([4]; 5 or 10 daily intravenous injections, 670 pmol/20 g) was “significantly suppressed the tumor growth”, the survival ([4]; 5 or 10 daily intravenous injections, 670 pmol/20 g, log-rank test vs control chimera) was “extended their survival” and the “miR-26a in KIT+ tumor cells” value ([4]; NSG mice, MDA-MB-231 tumor, 3 days after intravenous injection 670 pmol/20 g, qPCR) was “Significant increase; also recorded: significant elevation”. For the same molecule, the “miR-26a in KIT tumor cells (KIT-negative population)” value ([4]; NSG mice, MDA-MB-231 tumor, 3 days after single injection, qPCR) was “No increase” and the EZH2 protein expression [5] was “significant suppression; also recorded: significantly suppressed”.

Reference: patent US20200171068A1, “COMPOSITIONS COMPRISING APTAMERS AND NUCLEIC ACID PAYLOADS AND METHODS OF USING THE SAME” (Children's National Medical Center, priority 2017, published 2020)
